The values that follow come from patent US20220112295A1 (Novo Nordisk, published 2022).

In experiment [1] the target is T1, native human CD30L expressed on Ramos cells (human, UniProt P32971 1-234).
T1 construct: It is used here for the native protein on human B cell lines; also called huCD30L; Native huCD30L
T1 sequence: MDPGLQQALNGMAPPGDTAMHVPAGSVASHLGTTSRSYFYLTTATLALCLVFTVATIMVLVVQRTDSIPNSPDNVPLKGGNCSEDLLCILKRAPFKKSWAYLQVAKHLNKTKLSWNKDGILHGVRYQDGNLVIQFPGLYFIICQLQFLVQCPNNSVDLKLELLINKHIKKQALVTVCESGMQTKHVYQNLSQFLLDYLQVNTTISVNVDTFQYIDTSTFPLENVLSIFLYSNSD
The experiment in a line: FACS Kd method on Ramos cells, equilibrium, KinExA n-curve analysis. On the procedure: Binding affinity of CD30L antibodies to CD30L expressed on Ramos cells were determined by FACS Kd method. The Ramos cells were cultured in RMPI1640 media+10% FBS+L-glut+0.05% azide. Two equilibrium reactions were set up where the antibodies were titrated 1:3 from 60 nM to […] using cell culture media and incubated with two different constant cell concentrations (25000 and 250000 cells). The plates were sealed with parafilm and incubated at 37° C., 20 h, shaking. The equilibrium plates were centrifuged and cell pellets were washed twice with ice cold FACS buffer (1× D-PBS+2% FBS). The cells were then incubated with a secondary antibody goat anti-human Fe Cy5 (Jackson Immuno Research, West Grove, Pa.) and with 7AAD (BD-Biosciences, Rockville, Md.) for 1 h on ice in the dark. Following the incubation, the cells were washed twice with ice-cold FACS buffer before flow cytometry analysis. The GeoMean values of FL4 shift gated on live cell population measure the bound [Ab]. The inverse of the GeoMean values that reflects theoretical free [Ag] in the equilibrium solution was then calculated. The inverse values of the GeoMean read were used in KinExA software for analysis and Kd calculation for each antibody. The free [Ag] measure was plotted against the starting concentration of titrating component and from these plots at two different cell concentrations the Kd was obtained from curve fitting using n-curve analysis in KinExA™ Pro software. The 95% confidence interval is given as Kd low and Kd high.
Background: In KinExA the mixture passes briefly over coated beads that capture the unbound partner.

The target of experiment [2] is T1, native human CD30L expressed on Ramos …. The experiment in a line: FACS, native human CD30L on Ramos cells. On the procedure: The supernatants were purified and recombinant antibodies were expressed as IgG1 and IgG2 constructs. The antibodies were rescreened for binding to native human and cynomologous monkey CD30L. Briefly, human Burkitt's lymphoma Ramos cells (3×10⁵/well) were incubated in round-bottomed 96-well microtiter plates (Costar® 96 well plate (Corning; Acton, Mass.) with a titration (10 μg/mL to 3.2 ng/mL final concentration) of anti-CD30L IgG antibodies in blocking buffer (PBS containing 0.02% sodium azide, 2% normal goat serum and 1% normal rabbit serum). Human […] fusion protein was included as a positive control for binding. Cells were incubated for 30 minutes at 4° C. then washed ×2 with PBS and incubated for a further 30 minutes at 4° C. with 30 μL/well of anti-hu IgG-biotin (1:50 in blocking buffer; Jackson Immunoresearch, West Grove, Pa.). After washing ×2 with PBS, cells were incubated for 30 minutes at 4° C. with 30 μL/well (1:50 dilution in PBS) of Streptavidin-Phycoerythrin (PE; Molecular Probes, Eugene, Oreg.). Cells were washed 2× with PBS and prepared for FACs analysis.
Background: In flow cytometry, cells or beads pass a laser one at a time.

The target in a further experiment is T2, cyno CD30L LZ (cynomolgus monkey, UniProt A0A7N9CVX7 63-234).
T2 construct: extracellular domain; not shown: N-terminal isoleucine zipper motif
T2 sequence: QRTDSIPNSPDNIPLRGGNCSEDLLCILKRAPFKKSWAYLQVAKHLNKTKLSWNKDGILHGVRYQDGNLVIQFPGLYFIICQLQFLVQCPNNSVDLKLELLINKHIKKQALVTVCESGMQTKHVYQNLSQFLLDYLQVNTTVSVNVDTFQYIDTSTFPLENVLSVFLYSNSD
The experiment in a line: blocking of cyno CD30L LZ binding to K299 cells (CD30). On the procedure: Anti-CD30L IgG antibodies were titrated into culture diluent (RPMI-1640 medium+10% heat-inactivated fetal bovine serum) and placed into round-bottomed 96-well microtiter plates (Costar® 96 well plate (Corning; Acton, Mass.) to give a range of final concentrations from luglmi to 10 pg/ml. As a positive control, a mouse anti-human CD30L monoclonal antibody was prepared as described in U.S. Pat. No. 5,480,981. The final volume of diluent and CD30L IgG was 100 μl/well. To each well was then added 50 µl of recombinant human CD30L isoleucine zipper ([…]). The huCD30L LZ construct consists of the extracellular domain of human CD30L (see U.S. Pat. No. 5,480,981) linked at its N-terminus to an isoleucine zipper motif modified by replacing the leucine residues with isoleucine residues. The single cell assay was also used to determine cyno cross-reactivity using a cyno CD30L LZ instead of the huCD30L LZ. CynoCD30L LZ was prepared as described for the human LZ molecule.
The plates were incubated for 45 minutes at room temperature. To each well was added 50 μl of K299 cells (4×10⁵ cells/ml). The plates were then incubated for 24 hours at 37° C. 5% CO₂.
The amount of IL-8 in the cell supernatants was determined by sandwich ELISA, using a CDCL8/IL-8 ELISA DuoSet kit according to the manufacturer's instructions (R&D Systems, Minneapolis, Minn.). IL-8 levels were interpolated from the ELISA standard curve using DeltaSoft 3 version 2.2 software (DeltaSoft, Inc. Hillsborough, N.J.). At results were expressed as the mean It standard error of the mean (SEM) for 3 replicate cultures calculated by GraphPad PRISM software v. 4.01 (GraphPad Software Inc., San Diego, Calif.) as were the IC₅₀ values. The IC₅₀ value derived using the huCD30L LZ for Antibody A1 was 2700 pM. The results using the cynoCD30L LZ can be found in Table 5.

The target of experiment [3] is T1, native human CD30L expressed on Ramos …. The experiment in a line: FACS, antibody at 50 ug/mL, inhibition of huCD30.Fc-His binding to Ramos cells. On the procedure:
The antibodies were also screened for ability to block binding of human CD30L to a soluble human CD30. c molecule. Briefly, human Ramos cells or activated cynomolgus monkey T cells were incubated with anti-CD30L IgGs at 50 μg/mL in blocking buffer for 30 minutes at 4° C. Soluble huCD30. Fc-His was then added at a final concentration of 2.5 ug/mL (30 μL/well) and incubated for 30 minutes at 4° C. Cells were washed ×2 with PBS and incubated with 5 μg/mL of a mouse anti-His monoclonal antibody (30μL/well in blocking buffer) and incubated for 30 minutes at 4° C. After washing ×2 with PBS, cells were incubated with anti-mouse IgG-PE (1:50 in PBS; BD Pharmingen, San Diego, Calif.) for a further 30 minutes at […]. Cells were then washed ×2 with PBS and prepared for FACs analysis.

B1: Antibody A (antibody, V domains shown)
VH: QVQLQESGPGLVKPSETLSLTCTVSGGSISSYIWSWIRQPAGKGLEWIGRIYASGNTNYNPSLKSRVTMSVDTSKNQFSLKLSSMTAADTAVYYCARDYRVAGTYYYYYGLDVWGQGTTVTVSS
VL: QSALTQPASVSGSPGQSITISCTGTSSDVGVYDYVSWYQQHPGKAPKLMIYEVSNRPSGVSNRFSGSKSGNTASLTISGLQTEDEADYYCSSYTSRSTWVFGGGTKLTVL
notes: Human antibody (XenoMouse); also called mAb A; anti-hCD30L A
One may read the Kd as the constant that tells how readily two partners part at equilibrium. Read a low Kd as a tighter complex. As usually defined, the EC50 is the concentration needed to bring the measured effect to its halfway point. Low readings indicate an effect from little substance, high ones a need for much substance. As a reminder, the IC50 is the concentration that inhibits the measured activity by half. Read a low IC50 as greater potency in that assay. Usually % inhibition stands for the share of the control response that was lost under treatment. Low values mean a weak effect, high ones a strong effect. In experiment [1], B1 gave a dissociation constant (Kd) of 0.0255 nM. Further, the EC50 in experiment [2] came out at 1.7 nM. This molecule also came in with a half-inhibitory concentration (IC50) with cyno CD30L LZ of 1.4 nM. Moreover, the “% inhibition” value in experiment [3] came to 68%.

B2: Antibody D (antibody, V domains shown)
VH: QVQLQESGPGLVKPSETLSLTCTVSGGSISSYSWSWIRQPAGKGLEWIGRTSTSGRNNYNPSLKSRVTMSVDTSKNQFSLKLNSVTAADTAVYYCARDFTIAARRYYYYGMDVWGQGTTVTVSS
VL: QSALTQPASVSGSPGQSITISCTGTSSDIGLYNYVSWYQQHPGKAPKLIIYEVINRPSGVSNRFSGSESGNTASLTISGLQAEDEANYYCSSYTSSSTWVFGGGTKLTVL
notes: also called mAb D
Consider B2, for which, in experiment [1], the affinity, expressed as Kd, was 0.0119 nM. This molecule also yielded an EC50 in experiment [2] of 3.3 nM. Further, the “% inhibition” value in experiment [3] was found to be 55%.

B3: Antibody F (antibody, V domains shown)
VH: QVQLQESGPGLVKPSETLSLTCTVSGGSISSYYWSWIRQPAGKGLEWIGRIFASGSTNYNPSLRSRVTMSRDTSKNQFSLKLSSVTAADTAVYYCAKERVGVQDYYHYSGMDVWGQGTTVTVSS
VL: QSALTQPASVSGSPGQSITISCTGTSSDVGLYNYVSWYQQQPGKAPKLMIYEVSKRPSGVSNRFSGSTSGNTASLTISGLQADDEADYSCSSYTSSSTWVFGGGTKLTVL
notes: also called mAb F
On to B3, for which the Kd in experiment [1] turned out to be 0.0357 nM. Moreover, the EC50 in experiment [2] worked out at 2.3 nM. In addition, the IC50 with cyno CD30L LZ is 0.45 nM.

B4: Antibody B (antibody, V domains shown)
VH: QVQLQESGPGLVKPSETLSLTCTVSGGSISSYYWTWIRQPAGKGLEWIGRIYTSGITNYNPSLKSRVTMSVDTSKNQFSLKLSSVTAADTAVYYCARERVVGASRYYYYGVDVWGQGTTVTVSS
VL: QSALTQPASVSGSPGQSITISCTGTSSDVGLYNYVSWYQQHPDKAPKLMIFEVNNRPSGVSNRFSGSNSGNTASLTISGLQAEDEADYYCSSYTSSSTWVFGGGTKLTVL
notes: also called mAb B
Take B4: the affinity in experiment [1], expressed as Kd, was 0.00743 nM. For the same molecule, in experiment [2], the EC50 was found to be 3.1 nM. In addition, the “% inhibition” value in experiment [3] was determined as 70%.

B5: Antibody C (antibody, V domains shown)
VH: QVQLQESGPGLVKPSETLSLTCTVSGGSISSYYWTWIRQPAGKGLEWIGRIYTSGITNYNPSLKSRVTMSVDTSKNQFSLKLSSVTAADTAVYYCARERVVGASRYYYYGVDVWGQGTTVTVSS
VL: QSALTQPASVSGSPGQSITISCTGTSSDIGLYDYVSWYQQHPDRAPKLIIFEVNNRPSGVSYRFSGSNSGNTASLTISGLQAEDEADYYCSSYTSSSTWVFGGGTKLTVL
notes: also called mAb C
In experiment [1], B5 registered a Kd of 0.044 nM. Further, a half-maximal effect in experiment [2] (EC50) was put at 1.7 nM. The “% inhibition” value in experiment [3] turned out to be 88%.

B6: Antibody E (antibody, V domains shown)
VH: QVQLQESGPRLVKPSETLSLTCTVSGGSITNNYWSWIRQPAGKGLEWIGRVYSSGLTNYKPSLKSRVTMSVDTSKNQFSLRLNSVTAADTAVYYCARERATVTTRYHYDGMDVWGQGTSVTVSS
VL: QSALTQPASVSGSPGQSITISCTGSSSDIGTYNYVSWYQQYPGKAPELMIYEVNNRPSGVSDRFSGSTSGNTASLTISGLQANDEADYYCSSYSSSSTWVFGGGTKLTVL
notes: also called mAb E
B6: the dissociation constant Kd in experiment [1] is 0.0521 nM. In experiment [2], this molecule had an EC50 of 3.3 nM. Moreover, the IC50 with cyno CD30L LZ is 1.3 nM. For the same molecule, the “% inhibition” value in experiment [3] stood at 80%.
